In PMC3362863 (Traffic (Copenhagen, Denmark), 2011):

Target: the molecule itself
Experiment: cross-linking

B1: P2X4-GFP (receptor, UniProt P51577 1-388, looked up)
chain: MAGCCSVLGSFLFEYDTPRIVLIRSRKVGLMNRAVQLLILAYVIGWVFVWEKGYQETDSVVSSVTTKAKGVAVTNTSQLGFRIWDVADYVIPAQEENSLFIMTNMIVTVNQTQSTCPEIPDKTSICNSDADCTPGSVDTHSSGVATGRCVPFNESVKTCEVAAWCPVENDVGVPTPAFLKAAENFTLLVKNNIWYPKFNFSKRNILPNITTSYLKSCIYNAQTDPFCPIFRLGTIVEDAGHSFQEMAVEGGIMGIQIKWDCNLDRAASLCLPRYSFRRLDTRDLEHNVSPGYNFRFAKYYRDLAGKEQRTLTKAYGIRFDIIVFGKAGKFDIIPTMINVGSGLALLGVATVLCDVIVLYCMKKKYYYRDKKYKYVEDYEQGLSGEMNQ
For B1, the “stoichiometry N” value was 3.

B2: CHC-TFE3 fusion protein, Flag- or Myc-tagged (other, human, UniProt Q00610 1-932, looked up)
chain: MAQILPIRFQEHLQLQNLGINPANIGFSTLTMESDKFICIREKVGEQAQVVIIDMNDPSNPIRRPISADSAIMNPASKVIALKAGKTLQIFNIEMKSKMKAHTMTDDVTFWKWISLNTVALVTDNAVYHWSMEGESQPVKMFDRHSSLAGCQIINYRTDAKQKWLLLTGISAQQNRVVGAMQLYSVDRKVSQPIEGHAASFAQFKMEGNAEESTLFCFAVRGQAGGKLHIIEVGTPPTGNQPFPKKAVDVFFPPEAQNDFPVAMQISEKHDVVFLITKYGYIHLYDLETGTCIYMNRISGETIFVTAPHEATAGIIGVNRKGQVLSVCVEEENIIPYITNVLQNPDLALRMAVRNNLAGAEELFARKFNALFAQGNYSEAAKVAANAPKGILRTPDTIRRFQSVPAQPGQTSPLLQYFGILLDQGQLNKYESLELCRPVLQQGRKQLLEKWLKEDKLECSEELGDLVKSVDPTLALSVYLRANVPNKVIQCFAETGQVQKIVLYAKKVGYTPDWIFLLRNVMRISPDQGQQFAQMLVQDEEPLADITQIVDVFMEYNLIQQCTAFLLDALKNNRPSEGPLQTRLLEMNLMHAPQVADAILGNQMFTHYDRAHIAQLCEKAGLLQRALEHFTDLYDIKRAVVHTHLLNPEWLVNYFGSLSVEDSLECLRAMLSANIRQNLQICVQVASKYHEQLSTQSLIELFESFKSFEGLFYFLGSIVNFSQDPDVHFKYIQAACKTGQIKEVERICRESNCYDPERVKNFLKEAKLTDQLPLIIVCDRFDFVHDLVLYLYRNNLQKYIEIYVQKVNPSRLPVVIGGLLDVDCSEDVIKNLILVVRGQFSTDELVAEVEKRNRLKLLLPWLEARIHEGCEEPATHNALAKIYIDSNNNPERFLRENPYYDSRVVGKYCEKRDPHLACVAYERGQCDLELINLPVSGNLLDVYSSQGVATPAITVSNSCPAELPNIKREISETEAKALLKERQKKDNHNLIERRRRFNINDRIKELGTLIPKSSDPEMRWNKGTILKASVDYIRKLQKEQQRSKDLESRQRSLEQANRSLQLRIQELELQAQIHGLPVPPTPGLLSLATTSASDSLKPEQLDIEEEGRPGAATFHVGGGPAQNAPHQQPPAPPSDALLDLHFPSDHLGDLGDPFHLGLEDILMEEEEGVVGGLSGGALSPLRAASDPLLSSVSPAVSKASSRRSSFSMEEES
For B2, the “stoichiometry N” value was 2.
